The results in this text go back to patent publication US20210355194A1 (TWIST BIOSCIENCE, published 2021).

Broadly, the EC50 is the concentration that produces a half-maximal response. A low value points to a more potent agent. Usually Kd stands for a measure of binding affinity in units of concentration. A low value points to higher affinity. The IC50 is the concentration needed to halve the response being measured. A high value points to weaker potency in that assay.

“And” between values parts separate entries of the source, which are not always exact repeats. Identical values can stand only once. Like-named read-outs stand apart in the source and are kept apart here.

The target in assay [1] is T1, SARS-CoV-2 S1 protein (SARS-CoV-2, UniProt P0DTC2 16-685).
T1 construct: also called SARS-CoV-2 Spike Glycoprotein S1; S1 (subunit 1)
Kind of assay: ELISA binding titration on coated antigen. (ELISA stands for enzyme-linked immunosorbent assay.)

For assay [2], the target named is T1, SARS-CoV-2 S1 protein. Nature of the assay: phage ELISA screen on S1, mean.
Assay [3] concerns the target T1, SARS-CoV-2 S1 protein. Nature of the assay: phage ELISA screen on S1, mean. This is another data set of the same source.
Assay [4] has as its target T2, human ACE2 (human, UniProt Q9BYF1 18-740).
Assay [5] concerns the target T2, human ACE2. This is another data set of the same source.
Assay [6] addresses T1, SARS-CoV-2 S1 protein. Nature of the assay: inhibitor ELISA, competitor ACE2.
In the next assay the target is S protein trimer (SARS-CoV-2, UniProt P0DTC2 14-1208). Nature of the assay: ELISA, plate coated with S protein trimer.
For assay [7], the target named is T3, SARS-CoV-2 S protein RBD, SPD-C5259 (SARS-CoV-2, UniProt P0DTC2 319-537).
T3 construct: domain: RBD
Nature of the assay: FACS, inhibition of S protein RBD binding to Vero cells. Background: Flow cytometry measures light scatter and fluorescence of single cells or particles in a stream.

Assay [8] concerns the target T4, SARS-CoV-2 antigen of the epitope binning (SARS-CoV-2, UniProt P0DTC2 16-685).
T4 construct: also called S1
Kind of assay: epitope binning; competitor 2-5.

In assay [9] the target is T4, SARS-CoV-2 antigen of the epitope …. Nature of the assay: epitope binning; competitor 1-32.
Assay [10] has the same target. Nature of the assay: epitope binning; competitor Acro mAb.
Assay [11] has the same target. Kind of assay: epitope binning; competitor 2-8.
The target of assay [12] is T5, SARS-CoV-2 Spike Glycoprotein S1 (SARS-CoV-2, UniProt P0DTC2 16-685).
T5 construct: also called S1 Monomer
Kind of assay: ELISA, plate coated with S1.

Assay [13] concerns the target T4, SARS-CoV-2 antigen of the epitope …. Kind of assay: epitope binning; competitor 2-2.
The target is the same in assay [14]. Kind of assay: epitope binning; competitor 2-11.
Assay [15] has the same target. Kind of assay: epitope binning; competitor 2-6.
The target is the same in assay [16]. Nature of the assay: epitope binning; competitor 1-16.
For assay [17] the target is unchanged. Nature of the assay: epitope binning; competitor CR3022.
For assay [18] the target is unchanged. Kind of assay: epitope binning; competitor 1-35.
The target in assay [19] is T6, SARS-COV2-S1 RBD (mouse IgG2Fc tag) (SARS-CoV-2, UniProt P0DTC2 319-537). Nature of the assay: FACS, blocks S1 RBD-mFc binding to ACE2 on Vero E6.
The target in assay [20] is T6, SARS-COV2-S1 RBD (mouse IgG2Fc tag). Kind of assay: FACS, blocks S1 RBD-mFc binding to ACE2 on Vero E6. The source holds these as a separate data set.

T2 sequence (Q9BYF1 18-740 limits assumed): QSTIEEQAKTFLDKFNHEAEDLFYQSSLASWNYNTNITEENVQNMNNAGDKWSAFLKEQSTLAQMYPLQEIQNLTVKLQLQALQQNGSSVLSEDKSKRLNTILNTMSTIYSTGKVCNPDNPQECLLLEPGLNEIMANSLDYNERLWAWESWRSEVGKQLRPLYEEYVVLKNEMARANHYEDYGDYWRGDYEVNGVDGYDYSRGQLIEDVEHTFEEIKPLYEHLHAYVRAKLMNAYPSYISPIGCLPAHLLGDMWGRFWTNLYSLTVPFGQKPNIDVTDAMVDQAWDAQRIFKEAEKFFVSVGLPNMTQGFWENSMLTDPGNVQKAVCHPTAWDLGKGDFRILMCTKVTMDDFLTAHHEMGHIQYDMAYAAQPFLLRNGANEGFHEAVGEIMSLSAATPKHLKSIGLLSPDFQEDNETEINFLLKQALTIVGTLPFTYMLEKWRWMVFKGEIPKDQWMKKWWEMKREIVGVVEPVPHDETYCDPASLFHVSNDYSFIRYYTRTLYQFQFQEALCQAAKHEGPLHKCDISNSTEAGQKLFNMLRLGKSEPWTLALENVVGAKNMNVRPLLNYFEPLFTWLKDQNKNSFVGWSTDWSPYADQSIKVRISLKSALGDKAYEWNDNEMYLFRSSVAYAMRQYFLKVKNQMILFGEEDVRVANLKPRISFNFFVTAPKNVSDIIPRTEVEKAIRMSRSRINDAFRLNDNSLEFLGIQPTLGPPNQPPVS

B1: 2-17 (antibody, V domains shown)
VH: EVQLLESGGGLVQPGGSLRLSCAASGFTFSNYAMSWVRQAPGKGLEWVSAISGSAGSTYYADSVKGRFTISRDNSKNTLYLQMNSLRAEDTAVYYCARVRQGLRRTWYYFDYWGQGTLVTVSS
VL: DIQMTQSPSSLSASVGDRVTITCTGTSSDVGSSNLVSWYQQKPGKAPKLLIYEGSKRPSGVPSRFSGSGSGTDFTLTISSLQPEDFATYYCCSYAGSLYVFGQGTKVEIK
notes: also called variant 2-17
For B1, in the assay with SARS-CoV-2 S1 protein [1], the EC50 worked out at 100 nM. In addition, the “ELISA(Avg)” value with SARS-CoV-2 S1 protein [2] and with SARS-CoV-2 S1 protein [3] was 3.5 fold over background each time.

B2: 4-17 (VHH)
VHH: EVQLVESGGGLVQPGGSLRLSCAASGQLANFASYAMGWFRQAPGKEREFVAAITRSGSSTVYADSVKGRFTISADNSKNTAYLQMNSLKPEDTAVYYCATTMNPNPRWGQGTLVTVSS
In the case of B2, the Kd in the assay with human ACE2 [4] is 18.8 nM and 30.6 nM. For the same molecule, half-maximal inhibition with human ACE2 [5] (IC50) required 0.721 nM.

B3: 2-12 (antibody, V domains shown)
VH: EVQLLESGGGLVQPGGSLRLSCAASGFTFSDYPMNWVRQAPGKGLEWVSTISGSGGITFYADSVKGRFTISRDNSKNTLYLQMNSLRAEDTAVYYCVRHDEYSFDYWGQGTLVTVSS
VL: DIQMTQSPSSLSASVGDRVTITCRASQSIDNYLNWYQQKPGKAPKLLIYGVSALQSGVPSRFSGSGSGTDFTLTISSLQPEDFATYYCQQSHSAPPYFFGQGTKVEIK
notes: also called variant 2-12
In the assay with SARS-CoV-2 S1 protein [6], B3 showed an IC50 of 1 nM. For the same molecule, the “ELISA(Avg)” value in the assay with SARS-CoV-2 S1 protein [3] came to 18.2 fold over background.

B4: 2-8 (antibody, V domains shown)
VH: EVQLLESGGGLVQPGGSLRLSCAASGFTFSDFAMAWVRQAPGKGLEWVSAISGSGDITYYADSVKGRFTISRDNSKNTLYLQMNSLRAEDTAVYYCAREADGLHSPWHFDLWGQGTLVTVSS
VL: DIQMTQSPSSLSASVGDRVTITCRASQSIDTYLNWYQQKPGKAPKLLIYAASALASGVPSRFSGSGSGTDFTLTISSLQPEDFATYYCQQSYSAPPYTFGQGTKVEIK
In the case of B4, the “S Trimer” value in the assay with S protein trimer was found to be 7.08 nM. In addition, the IC50 in [7] stood at 19.5 nM. Also, the epitope binning score in [8] came to 0; in assay [9] it was 1; in assay [10], 1; in assay [11], 0; in [13], 0; in assay [14] it was 1. The epitope binning score was determined as 1 in assay [15], 1 in assay [16], 0 in assay [17] and 1 in assay [18]. In addition, the “S1 Monomer” value in assay [12] came to 1.52 nM.

B5: 2-4 (antibody, V domains shown)
VH: EVQLLESGGGLVQPGGSLRLSCAASGFTFSDFAMAWVRQAPGKGLEWVSAISGSGDITYYADSVKGRFTISRDNSKNTLYLQMNSLRAEDTAVYYCAREADGLHSPWHFDLWGQGTLVTVSS
VL: DIQMTQSPSSLSASVGDRVTITCRASQSIDTYLNWYQQKPGKAPKLLIYAASALASGVPSRFSGSGSGTDFTLTISSLQPEDFATYYCQQSYSAPPYTFGQGTKVEIK
On to B5, for which the “S Trimer” value with S protein trimer stood at 10.2 nM. This molecule also registered a 50% inhibitory concentration (IC50) in [7] of 46.3 nM. In addition, the “S1 Monomer” value in [12] was determined as 1.58 nM.

B6: variant 2-5 (antibody, V domains shown)
VH: EVQLLESGGGLVQPGGSLRLSCAASGFTFSDFAMAWVRQAPGKGLEWVSAISGSGDITYYADSVKGRFTISRDNSKNTLYLQMNSLRAEDTAVYYCAREADGLHSPWHFDLWGQGTLVTVSS
VL: DIQMTQSPSSLSASVGDRVTITCRASQSIHTYLNWYQQKPGKAPKLLIYAASALASGVPSRFSGSGSGTDFTLTISSLQPEDFATYYCQQSYSAPPYTFGQGTKVEIK
As for B6, the IC50 in assay [19] and in [20] was 2.15 nM each time.

B7: 2-13 (antibody, V domains shown)
VH: EVQLLESGGGLVQPGGSLRLSCAASGFTFSDYPMNWVRQAPGKGLEWVSAISGSGDNTYYADSVKGRFTISRDNSKNTLYLQMNSLRAEDTAVYYCVRHDEYSFDYWGQGTLVTVSS
VL: DIQMTQSPSSLSASVGDRVTITCRASQSIDTYLNWYQQKPGKAPKLLIYGASALESGVPSRFSGSGSGTDFTLTISSLQPEDFATYYCQQSHSAPPYFFGQGTKVEIK
notes: also called variant 2-13
Consider B7, for which, in the assay with SARS-CoV-2 S1 protein [6], the IC50 was found to be 45 nM. Also, the “ELISA(Avg)” value with SARS-CoV-2 S1 protein [3] was 19.1 fold over background.

B8: 2-19 (antibody, V domains shown)
VH: EVQLLESGGGLVQPGGSLRLSCAASGFTFSSYTMSWVRQAPGKGLEWVSVISGSGGSTYYADSVKGRFTISRDNSKNTLYLQMNSLRAEDTAVYYCAREGYRDYLWYFDLWGQGTLVTVSS
VL: DIQMTQSPSSLSASVGDRVTITCTGTSTDVGSYNLVSWYQQKPGKAPKLLIYEGTKRPSGVPSRFSGSGSGTDFTLTISSLQPEDFATYYCCSYAGSYTSVVFGQGTKVEIK
notes: also called variant 2-19
In the case of B8, the “ELISA(Avg)” value in the assay with SARS-CoV-2 S1 protein [2] and with SARS-CoV-2 S1 protein [3] was 21.7 fold over background in each case.

B9: 2-2 (second entry, printed after 2-19) (antibody, V domains shown)
VH: EVQLLESGGGLVQPGGSLRLSCAASGFTFSSYDMSWVRQAPGKGLEWVSVISGSGGSTYYADSVKGRFTISRDNSKNTLYLQMNSLRAEDTAVYYCAKGPLVGWYFDLWGQGTLVTVSS
VL: DIQMTQSPSSLSASVGDRVTITCTGTSSNVGSYNLVSWYQQKPGKAPKLLIYEGTKRPSGVPSRFSGSGSGTDFTLTISSLQPEDFATYYCCSYAGSSSFVVFGQGTKVEIK
With B9, in the assay with SARS-CoV-2 S1 protein [1], the response was half-maximal at 100 nM (EC50). In addition, the “ELISA(Avg)” value in the assay with SARS-CoV-2 S1 protein [2] and with SARS-CoV-2 S1 protein [3] was 12.8 fold over background each time.

B10: 4-140 (VHH)
VHH: EVQLVESGGGLVQPGGSLRLSCAASGRTFSNAAMGWFRQAPGKEREFVARITWNGGSTFYADSVKGRFTISADNSKNTAYLQMNSLKPEDTAVYYCATTENPNPRWGQGTLVTVSS
On to B10, for which binding with human ACE2 [4] was put at a Kd of 8.9 nM. Moreover, the IC50 in the assay with human ACE2 [5] worked out at 3.07 nM.

B11: 4-54 (VHH)
VHH: EVQLVESGGGLVQPGGSLRLSCAASGRTFSDARMGWFRQAPGKEREFVGAVSWSGGTTVYADSVKGRFTISADNSKNTAYLQMNSLKPEDTAVYYCATTEDPYPRWGQGTLVTVSS
In turn, B11 registered a Kd with human ACE2 [4] of 645 nM. In addition, the IC50 with human ACE2 [5] amounted to 2 nM.

B12: 4-39 (VHH)
VHH: EVQLVESGGGLVQPGGSLRLSCAASGRTFSNAAMGWFRQAPGKEREFVARILWTGASRNYADSVKGRFTISADNSKNTAYLQMNSLKPEDTAVYYCATTENPNPRWGQGTLVTVSS
On to B12, for which the Kd with human ACE2 [4] came out at 17.5 nM. The IC50 with human ACE2 [5] turned out to be 1.15 nM.

B13: 4-101 (VHH)
VHH: EVQLVESGGGLVQPGGSLRLSCAASGRTFSNAAMGWFRQAPGKEREFVARILWTGASRSYADSVKGRFTISADNSKNTAYLQMNSLKPEDTAVYYCATTENPNPRWGQGTLVTVSS
Regarding B13, the Kd in the assay with human ACE2 [4] was found to be 5.8 nM. The molecule also yielded an IC50 in the assay with human ACE2 [5] of 0.568 nM.

B14: 2-18 (antibody, V domains shown)
VH: EVQLLESGGGLVQPGGSLRLSCAASGFTFSSYAMYWVRQAPGKGLEWVSAISGSAGSTYYADSVKGRFTISRDNSKNTLYLQMNSLRAEDTAVYYCARDTNDFWSGYSIFDPWGQGTLVTVSS
VL: DIQMTQSPSSLSASVGDRVTITCTGTSSDIGSYNLVSWYQQKPGKAPKLLIYEGTKRPSGVPSRFSGSGSGTDFTLTISSLQPEDFATYYCCSYAGSRTYVFGQGTKVEIK
notes: also called variant 2-18
Take B14: the “ELISA(Avg)” value with SARS-CoV-2 S1 protein [2] and with SARS-CoV-2 S1 protein [3] was 43 fold over background each time.
